Measured values from paper PMC8795524.

How the values were obtained:
Test in all cases: EMSA
[1] = target: T1, SAMD9 134-385 K198E (Homo sapiens, UniProt Q5K651 134-385, K198E)
T1 sequence: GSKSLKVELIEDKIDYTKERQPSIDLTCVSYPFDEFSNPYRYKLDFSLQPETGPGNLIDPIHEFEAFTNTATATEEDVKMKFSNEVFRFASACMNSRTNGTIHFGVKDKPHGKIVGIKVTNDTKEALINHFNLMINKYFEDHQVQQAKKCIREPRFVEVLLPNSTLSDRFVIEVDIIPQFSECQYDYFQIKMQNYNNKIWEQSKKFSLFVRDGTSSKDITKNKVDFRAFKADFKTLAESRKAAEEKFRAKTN

[2] = target: T2, SAMD9 134-385 K257E (Homo sapiens, UniProt Q5K651 134-385, K257E)
T2 sequence: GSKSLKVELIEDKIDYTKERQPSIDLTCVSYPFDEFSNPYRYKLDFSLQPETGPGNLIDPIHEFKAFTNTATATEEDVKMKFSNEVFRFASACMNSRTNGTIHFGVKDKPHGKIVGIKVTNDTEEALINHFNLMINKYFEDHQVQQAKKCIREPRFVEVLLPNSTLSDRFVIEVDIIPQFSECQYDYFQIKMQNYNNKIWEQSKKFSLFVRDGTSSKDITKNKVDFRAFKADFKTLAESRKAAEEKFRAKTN

[3] = target: T3, SAMD9 134-385 R221E (Homo sapiens, UniProt Q5K651 134-385, R221E)
T3 sequence: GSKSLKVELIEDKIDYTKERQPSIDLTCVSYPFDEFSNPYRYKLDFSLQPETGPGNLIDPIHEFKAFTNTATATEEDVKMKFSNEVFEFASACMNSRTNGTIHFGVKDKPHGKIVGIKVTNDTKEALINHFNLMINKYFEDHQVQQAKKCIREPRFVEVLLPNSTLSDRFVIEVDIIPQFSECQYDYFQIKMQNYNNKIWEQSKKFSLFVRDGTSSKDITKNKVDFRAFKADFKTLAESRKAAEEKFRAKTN

[4] = target: T4, SAMD9 134-385 (Homo sapiens, UniProt Q5K651 134-385)
T4 sequence: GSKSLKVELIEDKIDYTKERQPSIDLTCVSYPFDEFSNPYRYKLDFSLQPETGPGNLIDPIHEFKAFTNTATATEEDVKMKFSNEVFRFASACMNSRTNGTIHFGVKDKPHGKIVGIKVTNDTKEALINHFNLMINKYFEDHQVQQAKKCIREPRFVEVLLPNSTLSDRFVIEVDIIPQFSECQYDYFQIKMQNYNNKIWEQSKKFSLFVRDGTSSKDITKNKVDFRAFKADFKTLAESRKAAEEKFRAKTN

| Binder | binding result [1] | binding result [2] | binding result [3] | binding result [4] |
| --- | --- | --- | --- | --- |
| 5' 6-FAM 22-nt dsDNA (dsDNA) DNA 1: GCAAATTAATGATTTATTCAAG DNA 2: CTTGAATAAATCATTAATTTGC | no binding | binds | no binding | – |
| 11-nt dsDNA (dsDNA) DNA 1: GAGAAAGAGAG DNA 2: CTCTCTTTCTC | – | – | – | no binding |
